Reference: the nanobody polyreactivity screen of Harvey et al. (2022)

Assay: yeast display, Sf9 membrane polyspecificity reagent, FACS + sequencing; frameworks hold sequencing errors
Summary of the method: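 After 36–48 hours of galactose induction, yeast (Saccharomyces cerevisiae BJ5465) displaying a synthetic nanobody library were stained at 4 °C for 1 hour with 10% biotinylated, detergent-solubilized Sf9 membrane reagent. Streptavidin microbeads enriched the stained cells before FACS sorting into low and high (top ~1%) gates on anti-HA and streptavidin fluorescence. Each clone's polyreactivity label reflects its gate of origin.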

Row | Sequence | polyreactivity (PSR sort gate)
1 | QVQLVESGGGLVQAGGSLRLSCAASGRIFAYYAMGWNRQAPGKERELVAAISRSGVSTYYADSVKGRFTISRDNAKNTVYLQRNSLKPEDTAVYYCAARWRSGFTSGDYWGQGTLVTVSS | low polyreactivity
2 | QVQLVESGGGLVQAGGSLRLSCAASAFILDWNTIGWYRQAPRKEREFVAAITSRGGDTYYADSVKGRFTISRDNAKNTDYFQMNSMKPEDTAVYYWNKGFKLWPRYGYDYWGLGTQVTVSS | low polyreactivity
3 | QVQLVESGGGLVQAGGSLRLSCAASGSIFKFYAMGWNRQAPGKERAFVAAITYRGGSTYYADSVKGRFTISRDNAKNTVYLQMNRLKPEDTAVYYCNAVVLRWRGYLVPFNYWGQGTQVTVSS | high polyreactivity
4 | QVQLVESGGGLVQAGGSLRLSCAASGYSFRIYAMGWYRQAPGKERELVATITNGGSTHYADSEKGRFTISRDNAKNTVYLQMNSLKPEDTAVYYCAAYLPGWELRDYGYWGQGTQVTVSS | high polyreactivity
5 | QVHLVESGGGLVQAGGSLRLSCAASGRTLGGYAMGWYRQAPGKERELVAVITWNGGSTYADSVKGRFTISRDNAKNTVYLQRNSLKPEDTAVYYCAVYIPRGGRSGYWGQGTQVTVSS | high polyreactivity
6 | QVQLVESGGGLVQAGGSLRLSCAASGRTFAPYAMGWYRQARGQERELVATITRTGRTNYADSVKGRFTISRDNAKNTVYLQMNSLKPEDTAVYYCAAYTYYGFYYWGQGTQVTVSS | high polyreactivity
7 | QVQLVESGGGLVQAGGSLRLSCDASGITFYSYAMGWYRQAPGKEREFVAAITRGGGITSYADSVKGRFTISRDNAKNTVYLQMNSLKPEDTAVYYCAVYTYHYGRSTYYKYDYWGQGTQVTVSS | high polyreactivity
8 | QVQLVESGGGLVQAGGSLRLSCAASGRTFWSYAMGWYRQAPGKERELVAAINSSGDSTYYADSVKGRFTISRDNAKNTVYLQMNSLKPEDTAVYYCAADGGLLAGSDATVRMDYWGQGTQVTVSS | low polyreactivity
9 | QVQLLESGGGLVQAGGSLRLSCAASGSTFQAYAMGWYRQAPGKERELVAAISVSDGITYYADSVKGRFTISRDNAKNTVYLQMNSLKPEDTAVYYCAAEISLSRSDRIESYDYWGQGTQVTVSS | low polyreactivity
10 | QVQLEESGGGLVQAGGSLRLSCSASGRIFIKYAMGWYRQAPGKEREFVAAISGRGGSTYYADSVKGRFTISRDNAKNTVYLQMNSLKPEDTAVYYWAKRFFSTGTAAGMYYWGQGTQVTVSS | high polyreactivity
11 | QVQLVESGGGLVQAGGSLRLSCAASGSTFAYNAMGWYRQAPGKERELVAAISFSGGSTYYADSVKGRFTLSRDNAKNTVYLQMNSLKQEDTAVYYCAKRGYPSTNGRQEGYWGQGTQVTVSS | low polyreactivity
12 | QVQLVESGGGLVQAGGSLRLSCAASGFTFRRYAMGWYRQAPGKERELVAAISYGGGRTYYAESVKGRFTISRDNAKNTVYLQMNSLKPEDTAVYYCAADVLSRYVGEADYWGQGTQVTVSS | high polyreactivity
13 | QVQLVESGGGLVQAGGSLRLSCAASGFIFDSYAMGWYRQAPGKERELVAAITYSGSSTYYADSVKGRFTISRDNAKNTVYLQMNSLKPEDTAVYYCAAVWRYSHLYGYWGQGTQVTVSS | high polyreactivity
14 | QVQLVESGGGLVQAGGSLRLSCAASVSTFPGYAMGWYRQAPGKERELVAAISTSGGRTYYADSVKGRFTISRDNAKNTVYLQMNSLKPEDTAVYYCAARDTRSPYSGTQVEYWGQGTQVTVSS | low polyreactivity
15 | QVQLVESGGGLVQAGGSLLLSCAASASTISYKAMGWYRHAPGQETELVAAIDRSVSTNYADSVKGRFTISRDNAKNTVYLQMNSLKPEDTAVYYCNARHPTDDIVIYDYWGQGTQVTVSS | low polyreactivity
16 | QVQLVESGGGLVQAGGSLRLSCAASGGIFGYYAMAWYRQAPGKEREFVAAITLSGGRSYYADSVKGRFTISRDNAKNTVYLQMNSLKPEDTAVYYCNAYPYYLVRNMDSWGQGTQVTVTS | high polyreactivity
17 | QVQLVESGGGLVQAGGSLRLSCAASGGIFGRYAMGWYRQAPGKERELVAGISYSGGSTYYADSVKGRFTISRDNAKNSVYLQMNSLKPEDTAVYYCATGGYVWYRSVNVWTRMDYWGQGTQVTVSS | high polyreactivity
18 | QVQLVESGGGLVQAGGSLRLSCAASGRTLFPNVMGWYRQAPGKERELVAAIRGTGGSTYADSVKGRVTISRDNAKNTVYLQMNSLKPEDTAVYYCAAGYPVTRRTIRFDYWGQGTQVTVSS | high polyreactivity
19 | QVQLVESGGGLVQAGGSLRLSCDASGSTFWYYAMGWYRQAPGKERELVASITSSGSTNYADSVKGRFTISRDNAKNTVYLQMNSLKPEDTAVYYCNRVSKYERLSRYGYYGYYYWGQGTQVTVSS | high polyreactivity
20 | QVQLVESGGGLVQAGGSLRLSCAASGSTFQVYAMGWYRQAPGKERELVASITSGGITYYADSVKGRFTISRDNAKNTVYLQMNSLKPEDTAVYYCAVDIRQSGELQRLFLYDYWGQGTQVTVSS | low polyreactivity
21 | QVQLVESGGGLVQAGGSLRLICAATGLIFPLYDMGWYRQAAGKERELVAAITLGGGGTYYADSVKGRFTISRDNAKNTVYLQMNSLKPEDTAVYYCNADYDIAAQLRTYITFDYWGQGTQVTVSS | low polyreactivity
22 | QVQLVESGGGLVQAGGSLRLSCAASGPIFTSNAMGWYRQAPGKERELVAAISRRGTRTYYADSVKGRFTISRDNAKNTVYLQMNSLKPEDTAVYYCAATTGEQEYYWGQGTQVTVSS | high polyreactivity

Row | Sequence | polyreactivity (PSR sort gate)
23 | QVQLVESGGGLVQAGGSLRLSCAASGRTFAGYVMGWYRQAPGKERELVAAISTSGGSTRYADSVKGRFTISRDNAKNTVYLQMNSLKPEDTAVYYCAKLLYLGRWRFPAGYNHWGQGTQVTVSS | high polyreactivity
24 | QVQLVESGGGLVQAGGSLRLSCAASGRTFGIYVMGWYRQAPGKEMEWVAAIRGGGTTYYADSVKGRFTISRENAKNTVYLQMNSLKPEDTAVYYCAAVVKWWGQSRYDYWGQGTQVTVSS | high polyreactivity
25 | QVQLVESGGGLVQAGGSLRLSCAATGITFEYNAMGWYRQAPGKERELVAAISLSSGSTYYADSVKGRFTISRDNAKNTVYLQMNSLKPEDTAVYYCNADTIIYEGGYWGQGTQVTVSS | low polyreactivity
26 | QVQLQESGGGLVQAGGSLRLSCAASGYISSWYPKGWYRQAPGQEREFVATIAPGATTYYADSVKGRFTMSRDYAKNTVYLQMNSLKPEDTAVYYCAAGPENNDFYSYWGQGTQVTVSS | low polyreactivity
27 | QVQLVESGGGLVQAGGSLRLSCAASGRIFAYYTMGWYRQAPGKERELVAAITSRGGSTYYADSVKGRFTISRDNAKKTVYLQMNSLKPEDTAVYYCAALRPSNVDYWGQGTQVTVSS | high polyreactivity
28 | QVQLVESGGGLVQAGGSLRLSCAASGFTFAVYVMGWYRQAPGKERELVATISFSVGSTYYADSVKGRFTISRDNAKNTVYLQMNSLKPEDTAVYYCNADPPPEYYPDKDNYWGQGTQVTVSS | low polyreactivity
29 | QVQLQESGGGLVQPGGSLRLSCAATGTISDSGLMGWYRQAPGKERELVSGISSGGITQYADSVNGRFTISRDNAKNTVYLQMNSLKPEDTAVYWGQGTQVTVSS | low polyreactivity
30 | QVQLVESGGGLVQAGGSLRLSCAASGRILTSNAMGWYRQAPGKERELVAAISWSGGSTYYADSVKGRFTISRDNAKNTVYLQMNSLKPEDTAVYYCAARSIGRAGGYHYWGQGTQVTVSS | low polyreactivity
31 | QVQLVESGGGLVQAGGSLRLSCAASGITFFYNAMGWYRQAPGKERELVAAISTSGGSTHYADSVKGRFTISRDIAKNTVYLQMNSLKPEDTAVYYCAARGRYRLYGYWGQGTQVTVSS | high polyreactivity
32 | QVQLVESGGGLVQAGGSLRLTCAASGSIYVGNAMGWNRHAPGKEREFVAAISRSGGRTYYADSVKGRFTISRDNEKNTVYLQMNSLKPEDTAVYYCNAYGWEQRQMDSWGQGTQVTVSS | high polyreactivity
33 | QVQIGESGGGLVQAGGSLRLSCAASGFIIGTNTMGWYRQAPGKERELVAAITSVGSTNYADSVKGRFTISRDNAKNTVYLQMNSLKPEDTAVYYCPATLYYQYGGDYWGQGTQVTVSS | low polyreactivity
34 | QVQLVESGGGLVQAGGSLRLSCAASGRTFRGNDMGWYRQAPGKEWELVATITRNGGSTRYADSVKGRFTISRDNAKNTVYLQMNSLKPEDTAVYYCNARSRYFGYDYWGQGTQVTVSS | high polyreactivity
35 | HVQLVESGGGLVQAGGSLRLSCAASGSIFRGNAMGWYRQAPGKERELVAAISKSGGSTYYADSVKGRFTISRDNAKNTVFVQMNSLKPEDTAVYYCAARTTYLYGMYYWGQGTQVTVSS | low polyreactivity
36 | QVQLVESGGGLVQAGFSLRLSCAASGNIYYKYAMGWYRQAPGKERELVAAITWRVVRTYYADSVKGRFTISRDNAKNTVYLQMNSLKPEDTAVYYCAALSRQSGDYWGQGTQVTVSS | high polyreactivity
37 | QVQLVESGGGLVQAGGSLRLSCAASGITFGYYAMGLYRQAPGKERELVAAISWSGGRTYYADSVKGRLTISRDNAKNTVYLQMNSLKPEDTAVYYCATRYPVRRGSGPSYDYWGQGTQVTVSS | high polyreactivity
38 | QVQLVESGGGLVQAGGSLRLICAASGSTFFYNAMGWYRQAPGKEREFVAAIRWRGGSTYYADSVKGRFTISRDNAKNTVYLQMNSLKPEDTAVYYCAAVYYRWEYDYWGQGTQVTVSS | high polyreactivity
39 | QVQLVESGGGLVQAGGSLRLSCAASGITFGFNAMGWYRQAPGKERELVAAITWSVGRTYYADSVKGRFTISRDNAKNTVYLQMNSLKPEDTAVYYCAKDFEAGDDYFAYDYWGQGTQVTVSS | low polyreactivity
40 | QVQHVESVGGLVQAGGSLRLICAASGGTIDTYAIGWYRQAPGKERELVAGIDWSGGSTYYADSVKGRFTISRDNSKNTVYLQMNSLKPEDTAVYYCAADYYYPSQMDYWGQGTQVTVSS | low polyreactivity
41 | QDQLVESRGDLVQAGGSLRLSCAASGSIFYDYAMRWYRQAPGKERELVAASDSGRNTTYADSVKGRFTISRDNAKKTVYFQMNSLKPEATAVYYCKTDPGWFDDSPPDPYIYGGYDYWGQGTQVTVSS | high polyreactivity
42 | QVQLVESGGGLVQAGGSLRLSCAASGRTFAWYAMGWYRQAPGKERELVAAISSSGGTTYYADSVKGRFTISRDNAKNTVYLQMNSLKPEDTAVYYCAARPGFWEYWGWWYDRYEYWGQGTQVTVSS | low polyreactivity
43 | QVQLVESGGGLVQAGGSLRLSCAASGSTFGSYTMGWYRQAPGKERELVAAISYSSGRTYYADSVKGRFTISRDNAKNTVYLQMNSLKPEDTAVYYCAAVSRGRGEYDYWGQGTQLTVSS | high polyreactivity
